# Experimental data: patent publication US20130209454A1
# Legend:
# Assay in all cases: cell-based or functional assay
# [1] = biological target: HIV-1 Env of strain MS208.A1 (HIV-1)
# [2] = biological target: HIV-1 Env of strain WITO4160.33 (HIV-1)
# [3] = biological target: HIV-1 Env of strain 3016.v5.c45 (HIV-1)
# [4] = biological target: HIV-1 Env of strain HIV-16845-2.22 (HIV-1)
# [5] = biological target: Env of HIV-1 strain 191084 B7-19 (HIV-1)
# [6] = biological target: Env of HIV-1 strain ZM214M.PL15 (HIV-1)
# [7] = biological target: Env of HIV-1 strain BJOX009000.02.4 (HIV-1)
# [8] = biological target: Env of HIV-1 strain 1006_11_C3_1601 (HIV-1)
# [9] = biological target: Env of HIV-1 strain CNE20 (HIV-1)
# [10] = biological target: HIV-1 Env of strain Q769.d22 (HIV-1)
# [11] = biological target: HIV-1 Env of strain 3103.v3.c10 (HIV-1)
# [12] = biological target: Env of HIV-1 strain ZM197M.PB7 (HIV-1)
# [13] = biological target: Env of HIV-1 strain T250-4 (HIV-1)
# [14] = biological target: Env of HIV-1 strain Du156.12 (HIV-1)
# [15] = biological target: HIV-1 Env of strain T255-34 (HIV-1)
# [16] = biological target: Env of HIV-1 strain WITO4160.33 (HIV-1)
# [17] = biological target: HIV-1 Env of strain 235-47 (HIV-1)
# [18] = biological target: HIV-1 Env of strain X2088_c9 (HIV-1)
# [19] = biological target: HIV-1 Env of strain 6952.v1.c20 (HIV-1)
# [20] = biological target: Env of HIV-1 strain WEAU_d15_410_787 (HIV-1)
# [21] = biological target: HIV-1 Env of strain HIV-001428-2.42 (HIV-1)
# [22] = biological target: Env of HIV-1 strain SC422661.8 (HIV-1)
# [23] = biological target: Env of HIV-1 strain BJOX025000.01.1 (HIV-1)
# [24] = biological target: Env of HIV-1 strain BF1266.431a (HIV-1)
# [25] = biological target: Env of HIV-1 strain 231965.c01 (HIV-1)
# [26] = biological target: HIV-1 Env of strain THRO4156.18 (HIV-1)
# [27] = biological target: Env of HIV-1 strain 246F C1G (HIV-1)
# [28] = biological target: Env of HIV-1 strain 3817.v2.c59 (HIV-1)
# [29] = biological target: HIV-1 Env of strain SC05_8C11_2344 (HIV-1)
# [30] = biological target: Env of HIV-1 strain 620345.c01 (HIV-1)
# [31] = biological target: HIV-1 Env of strain 89-F1_2_25 (HIV-1)
# [32] = biological target: HIV-1 Env of strain ZM197M.PB7 (HIV-1)
# [33] = biological target: HIV-1 Env of strain 3301.v1.c24 (HIV-1)
# [34] = biological target: Env of HIV-1 strain ZM233M.PB6 (HIV-1)
# [35] = biological target: Env of HIV-1 strain 3415.v1.c1 (HIV-1)
# [36] = biological target: HIV-1 Env of strain C4118.c09 (HIV-1)
# [37] = biological target: Env of HIV-1 strain CAP45.2.00.G3 (HIV-1)
# [38] = biological target: Env of HIV-1 strain Ce2060_G9 (HIV-1)
# [39] = biological target: Env of HIV-1 strain THRO4156.18 (HIV-1)
# [40] = biological target: HIV-1 Env of strain HIV-16055-2.3 (HIV-1)
# [41] = biological target: HIV-1 Env of strain C3347.c11 (HIV-1)
# [42] = biological target: Env of HIV-1 strain AC10.0.29 (HIV-1)
# [43] = biological target: HIV-1 Env of strain P0402_c2_11 (HIV-1)
# [44] = biological target: Env of HIV-1 strain 263-8 (HIV-1)
# [45] = biological target: Env of HIV-1 strain C3347.c11 (HIV-1)
# [46] = biological target: HIV-1 Env of strain 249M B10 (HIV-1)
# [47] = biological target: Env of HIV-1 strain BJOX028000.10.3 (HIV-1)
# [48] = biological target: Env of HIV-1 strain 249M B10 (HIV-1)
# [49] = biological target: Env of HIV-1 strain PVO.4 (HIV-1)
# [50] = biological target: Env of HIV-1 strain BJOX010000.06.2 (HIV-1)
# NIH45-46 (antibody), sequence (VH): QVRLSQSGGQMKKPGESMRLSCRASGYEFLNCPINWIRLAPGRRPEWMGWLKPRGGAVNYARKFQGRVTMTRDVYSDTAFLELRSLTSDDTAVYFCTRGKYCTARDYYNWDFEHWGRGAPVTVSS
# NIH45-46 (antibody), sequence (V domain): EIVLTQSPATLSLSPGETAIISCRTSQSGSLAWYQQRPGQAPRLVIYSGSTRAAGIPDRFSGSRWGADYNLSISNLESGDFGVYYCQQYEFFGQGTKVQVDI
substance,measurement,setting,value
NIH45-46 (antibody),"IC50, pseudovirus neutralization",[1],0.09 µg/mL
same,"IC50, pseudovirus neutralization",[2],0.06 µg/mL
same,"IC50, pseudovirus neutralization",[3],> 50 µg/mL
same,"IC50, pseudovirus neutralization",[4],5 µg/mL
same,IC80,[5],0.07 µg/mL
same,IC80,[6],0.59 µg/mL
same,IC80,[7],1.16 µg/mL
same,IC80,[8],0.196 µg/mL
same,IC80,[9],> 50 µg/mL
same,"IC50, pseudovirus neutralization",[10],0.009 µg/mL
same,"IC50, pseudovirus neutralization",[11],1.77 µg/mL
same,IC80,[12],0.55 µg/mL
same,IC80,[13],> 50 µg/mL
same,IC80,[14],0.054 µg/mL
same,"IC50, pseudovirus neutralization",[15],0.71 µg/mL
same,IC80,[16],0.26 µg/mL
same,"IC50, pseudovirus neutralization",[17],0.3 µg/mL
same,"IC50, pseudovirus neutralization",[18],> 50 µg/mL
same,"IC50, pseudovirus neutralization",[19],0.02 µg/mL
same,IC80,[20],0.015 µg/mL
same,"IC50, pseudovirus neutralization",[21],0.001 µg/mL
same,IC80,[22],0.13 µg/mL
same,IC80,[23],10 µg/mL
same,IC80,[24],0.03 µg/mL
same,IC80,[25],0.126 µg/mL
same,"IC50, pseudovirus neutralization",[26],1.91 µg/mL
same,IC80,[27],> 50 µg/mL
same,IC80,[28],> 50 µg/mL
same,"IC50, pseudovirus neutralization",[29],0.14 µg/mL
same,IC80,[30],> 50 µg/mL
same,"IC50, pseudovirus neutralization",[31],> 50 µg/mL
same,"IC50, pseudovirus neutralization",[32],0.15 µg/mL
same,"IC50, pseudovirus neutralization",[33],0.009 µg/mL
same,IC80,[34],14.2 µg/mL
same,IC80,[35],0.086 µg/mL
same,"IC50, pseudovirus neutralization",[36],0.14 µg/mL
same,IC80,[37],> 50 µg/mL
same,IC80,[38],0.29 µg/mL
same,IC80,[39],8.22 µg/mL
same,"IC50, pseudovirus neutralization",[40],0.02 µg/mL
same,"IC50, pseudovirus neutralization",[41],0.029 µg/mL
same,IC80,[42],1.93 µg/mL
same,"IC50, pseudovirus neutralization",[43],0.073 µg/mL
same,IC80,[44],0.1 µg/mL
same,IC80,[45],0.094 µg/mL
same,"IC50, pseudovirus neutralization",[46],0.04 µg/mL
same,IC80,[47],> 50 µg/mL
same,IC80,[48],0.17 µg/mL
same,IC80,[49],0.41 µg/mL
same,IC80,[50],6.37 µg/mL
